This passage reports stoichiometry N results from PMC6872904.

This assay concerns the target Bmp8. Put plainly: SEC.

For the substance Bmp8 (enzyme), the stoichiometry N (as a rule, the number of molecules, sites or subunits per partner or assembly) was 2.
